Publication PMC12099300

Assays:
atezolizumab = assay: ELISA; antibodies coated on MaxiSorp plates (5 µg/mL, 50 µL, overnight 4°C), blocked with 1% BSA; PD-L1 or VISTA 50-0.0003 µg/mL in PBS, 1 h RT; detected by anti-His-tag antibody and Strep-HRP; EC50 by nonlinear regression
onvatilimab = assay: as above
Sequence of onvatilimab (heavy, as listed by the source, chain 1 of 2): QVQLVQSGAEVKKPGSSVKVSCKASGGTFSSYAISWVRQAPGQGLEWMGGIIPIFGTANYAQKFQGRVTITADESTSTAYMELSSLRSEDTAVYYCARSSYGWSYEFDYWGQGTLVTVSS
Sequence of onvatilimab (light, as listed by the source, chain 2 of 2): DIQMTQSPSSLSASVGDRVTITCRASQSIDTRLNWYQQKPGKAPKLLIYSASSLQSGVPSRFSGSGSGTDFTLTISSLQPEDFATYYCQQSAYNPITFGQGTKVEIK

EC50 (onvatilimab) [nM] | Substance | EC50 (atezolizumab) [nM]
– | PD-L1 (programmed cell death ligand 1) (from UniProt Q9NZQ7 19-290) (natural protein) | 0.07
0.0001 | VISTA (V-type immunoglobulin suppressor of T-cell activation) (from UniProt Q9H7M9 33-311) (natural protein) | –
